From the Immune Epitope Database (IEDB)

Tests used:
Settings in all cases: source organism: Rickettsia bellii OSU 85-389
[1] = target: HLA-A*30:02; assay: IEDB peptide-MHC binding, purified MHC/competitive/fluorescence; filed as Kd, often an IC50 or EC50 that approximates it; ≥ and ≤ were set here for values at or beyond the usual limits of such assays
[2] = target: HLA-A*66:01; assay: as above
[3] = target: HLA-B*07:02; assay: as above
[4] = target: HLA-B*44:02; assay: as above
[5] = target: HLA-A*23:01; assay: as above
[6] = target: HLA-B*14:02; assay: as above
[7] = target: HLA-B*27:05; assay: as above
[8] = target: HLA-B*58:01; assay: as above
[9] = target: HLA-A*01:01; assay: as above
[10] = target: HLA-A*11:01; assay: as above
[11] = target: HLA-B*08:01; assay: as above
[12] = target: HLA-A*30:01; assay: as above
[13] = target: HLA-B*40:01; assay: as above
[14] = target: HLA-B*53:01; assay: as above
[15] = target: HLA-B*18:01; assay: IEDB peptide-MHC binding, purified MHC/direct/fluorescence; filed as Kd, often an IC50 or EC50 that approximates it; ≥ and ≤ were set here for values at or beyond the usual limits of such assays
[16] = target: HLA-A*02:12; assay: as above
[17] = target: HLA-B*15:17; assay: as above
[18] = target: HLA-A*03:01; assay: as above
[19] = target: HLA-A*26:01; assay: as above
[20] = target: HLA-A*02:16; assay: as above
[21] = target: HLA-A*29:02; assay: as above
[22] = target: HLA-A*02:03; assay: as above
[23] = target: HLA-B*39:01; assay: as above
[24] = target: HLA-A*24:03; assay: as above

In the case of EDFEIFYNL, the Kd [1] is reported as no less than 5 µM, the Kd [2] is reported as no less than 5 µM and the Kd [3] is reported as no less than 5 µM. For the same sequence, the Kd [4] was no less than 5 µM, the Kd [5] was no less than 5 µM and the Kd [6] was no less than 5 µM. The Kd [7] was no less than 5 µM, the Kd [8] was no less than 5 µM and the Kd [9] was no less than 5 µM. The Kd [10] was no less than 5 µM, the Kd [11] was no less than 5 µM and the Kd [12] was no less than 5 µM. The Kd [13] was no less than 5 µM, the Kd [14] was no less than 5 µM and the Kd [15] was no less than 20 µM. The Kd [16] was no less than 20 µM, the Kd [17] was no less than 20 µM and the Kd [18] was no less than 20 µM. The Kd [19] was no less than 20 µM, the Kd [20] was no less than 20 µM and the Kd [21] was no less than 20 µM. For the same sequence, the Kd [22] was no less than 20 µM, the Kd [23] was no less than 20 µM and the Kd [24] was no less than 20 µM.
